# Experimental data: patent US20230295227A1, “COMPOUNDS FOR USE IN DIAGNOSIS AND/OR MONITORING OF FIBROSIS” (ANTAROS TRACER AB, priority 2020, published 2023)
# Where two headings read alike, the source gives them in different places.
# Legend:
# [1] = Stability testing of peptides at pH 7.4 (PBS), HPLC Method B; assay type: physicochemical
# Procedure: (§1) Analytical high performance liquid chromatography (HPLC) was performed on a Dionex UltiMate 3000 HPLC system with a Bruker amazon SL ion trap mass spectrometer and detection by UV (diode array detector, 214, 254, and 280 nm) and electrospray ionization (ESI) MS using a Penomenex Kinetex C18 column (50×3.0 mm, 2.6 μm particle size, 100 Åpore size) and a Penomenex Kinetex Biphenyl column (50×4.6 mm, 2.6 μm particle size, 100 Åpore size). A gradient of H2O/CH3CN/0.05% HCOOH was used at a flow rate of 1.5 mL/min.
# Method B: Detection at 214 nm column: Penomenex Kinetex Biphenyl column (50×4.6 mm, 2.6 μm particle size, 100 Åpore size) solvent: H2O+0.05% HCOOH: CH3CN+0.05% HCOOH (flow 1.5 ml/min) […]
# (§2) For stability testing, 500 μmol pure compound was dissolved in 1 mL PBS buffer (pH 7.4), or 1 mL sodium acetate buffer (pH 4.5, 100 mM). For the peptides stored in PBS, the solutions were stored for 14 days at 4° C. and 23° C. At 0 h, 1 day, 7 days and 14 days, the solutions were analyzed by HPLC (analytical HPLC Method A and Method B).
# (§3) The “% Purity” at each time point is defined by the % Relative purity at time point “n” (n=1 day, 7 days, 14 days in pH 7.4 PBS and 1 day at pH 4.5 NaAc) in relation to the % Relative purity at t0 following the equation:
# (§4) % Purity at tn=[(% Relative purity tn)×100)]/% Relative purity t0 […]
# Samples were incubated up to 14 days at 23° C. and 4° C. and were analyzed using HPLC Method B.
# [2] = Stability testing of peptides at pH 7.4 (PBS), HPLC Method A; assay type: physicochemical
# Procedure: as §1
# Method A: Detection at 214 nm column: Penomenex Kinetex C18 (50×3.0 mm, 2.6 μm particle size, 100 Åpore size) solvent: H2O+0.05% HCOOH: CH3CN+0.05% HCOOH (flow 1.5 ml/min) […]
# as §2, §3, §4
# Samples were incubated up to 14 days at 23° C. and 4° C. and were analyzed using HPLC Method A.
# [3] = Stability testing of peptides at pH 4.5 (sodium acetate buffer), HPLC Method B; assay type: physicochemical
# Procedure: as §1
# Method B: Detection at 214 nm
# For the peptides stored in sodium acetate buffer (pH 4.5, 100 mM) the solutions were analyzed by HPLC (analytical HPLC Method B) after 0 h, and 1 day incubation at 4° C. and 23° C.
# as §3
# % Purity at tn=[(% Relative purity tn)×100)]/% Relative purity t0
# Samples were incubated for 1 day at 23° C. and 4° C. and were analyzed using HPLC Method B.
# in vivo = assay: in vivo; set-up: species or system Sprague Dawley rats; conditions: rat
# Procedure: Sprague Dawley rats (obtained from Taconic, n=22, male, healthy, weight 287±25 g) were used for ex vivo organ distribution assessment of biodistribution and dosimetry.
# Five MBq of [^68Ga]Ga-1 (n=10) (corresponding to 5-10 μg) in phosphate-buffered saline (PBS, pH 7.4) was injected intravenously as a bolus to conscious rats. The animals were euthanized by a CO2—O2 mixture 10, 20, 40, 60 and 120 minutes post-injection. The radioactivity of the excised organs was measured in a gamma counter. Samples from blood, heart, lung, liver, spleen, adrenal glands, kidneys, intestines, with or without contents, muscle, testis, bone, brain, pancreas, urine bladder and bone marrow were collected. The remaining carcass was also measured in order to monitor the radioactivity elimination and recovery. The radioactivity readings were decay-corrected to the time of the injection, and the results were expressed as standardized uptake values (SUV).
# The biodistribution of [^68Ga]Ga-1 ([^68Ga]Ga—NH—(CH2CH2O)2—CH2—C(O)-LRELHLNNN—OH) was carried out as described above.
# [4] = mouse, in vivo; cited from earlier work
# [5] = rat, in vivo; cited from earlier work
# [6] = male, Sprague Dawley, iv, 5 MBq, total radioactivity
Compound,% Purity after 1 day ([1]; 4° C.) [%],% Purity after 7 days ([1]; 4° C.) [%],% Purity after 1 day ([1]; 23° C.) [%],% Purity after 7 days ([1]; 23° C.) [%],% Purity after 1 day ([2]; 4° C.) [%],% Purity after 7 days ([2]; 4° C.) [%],% Purity after 1 day ([2]; 23° C.) [%],% Purity after 7 days ([2]; 23° C.) [%],% Purity after 1 day ([3]; 4° C.) [%],% Purity after 1 day ([3]; 23° C.) [%],further results
H2N-L-R-E-L-H-L-N—N—N—K(DOTA-NH—(CH2CH2O)2—CH2—C(O))—NH2 [Compound 13],>99,>99,>99,>99,100,100,100,100,>99,>99,
"CC(C)C[C@H](NC(=O)COCCOCCNC(=O)CN1CCN(CC(=O)O)CCN(CC(=O)O)CCN(CC(=O)O)CC1)C(=O)N[C@@H](CCCNC(=N)N)C(=O)N[C@@H](CCC(=O)O)C(=O)N[C@@H](CC(C)C)C(=O)N[C@@H](Cc1c[nH]cn1)C(=O)N[C@@H](CC(C)C)C(=O)N[C@@H](CC(N)=O)C(=O)N[C@@H](CC(N)=O)C(=O)N[C@@H](CC(N)=O)C(=O)O [Compound 1, DOTA-NH—(CH2CH2O)2—CH2—C(O)-L-R-E-L-H-L-N—N—N—OH]",100,>98,>99,>98,>99,>99,>99,>98,>95,>96,% Purity after 14 days ([1]; 4° C.): >96%; % Purity after 14 days ([1]; 23° C.): >97%; % Purity after 14 days ([2]; 4° C.): >99%; % Purity after 14 days ([2]; 23° C.): >97%
"CC(C)C[C@H](NC(=O)COCCOCCNC(=O)CN1CCN(CC(=O)O)CCN(CC(=O)O)CCN(CC(=O)O)CC1)C(=O)N[C@@H](CCCNC(=N)N)C(=O)N[C@@H](CCC(=O)O)C(=O)N[C@@H](CC(C)C)C(=O)N[C@@H](Cc1c[nH]cn1)C(=O)N[C@@H](CC(C)C)C(=O)N[C@@H](CC(N)=O)C(=O)N[C@@H](CC(N)=O)C(=O)N[C@@H](CC(N)=O)C(=O)O [[^68Ga]Ga-1, [^68Ga]Ga-DOTA-NH—(CH2CH2O)2—CH2—C(O)-LRELHLNNN—OH, metal not drawn]",,,,,,,,,,,SUV at 1 h (in vivo; [6]): < 1 SUV; SUV at 2 h (in vivo; [6]): 1 SUV; SUV Kidney (in vivo): 1.7; SUV Liver (in vivo): 0.7
[^68Ga]Ga-DOTA-CBP8 [Comparative Tracer 1],,,,,,,,,,,SUV Kidney [4]: 10; SUV Liver [4]: 0.4
[^68Ga]Ga-NODAGA-Collagelin [Comparative Tracer 3],,,,,,,,,,,SUV Kidney [5]: 11.1; SUV Liver [5]: 0.8
DOTA-NH—(CH2CH2O)2—CH2—C(O)-L-R-E-L-H—V-N—N—N—OH [Compound 6],>99,>99,>99,>99,>99,>99,100,>99,>99,>99,
DOTA-NH—(CH2CH2O)3—CH2—C(O)-L-R-E-L-H-L-N—N—N—OH [Compound 11],>99,>99,>99,>99,>99,>97,>99,>96,>99,>98,
DOTA-L-R-E-L-H-L-N—N—N—OH [Compound 12],>99,>99,>99,>95,>99,>99,>99,>96,>98,>98,
[^68Ga]Ga-NOTA-Collagelin [Comparative Tracer 2],,,,,,,,,,,SUV Kidney [5]: 6.2; SUV Liver [5]: 0.5; SUV Kidney [4]: 10
